From patent publication US20160185832A1 (University of Pennsylvania, published 2016) come the findings set out here.

Experiment [1] has as its target T1, pure, pre-polymerized, taxol-stabilized microtubules of bovine tubulin (Cytoskeleton) (bovine, UniProt P81947 1-451; Q6B856 1-445, limits assumed).
T1 construct: Polymer of alpha/beta tubulin dimers, polymerized with GTP and stabilized with 10 µM taxol; also called MT; MTs
Put plainly: in vitro microtubule co-sedimentation, percent of construct in the microtubule pellet (FIG. 4D). How it is done: Crude TNT T7 reaction products were diluted 1:1 in BRB80 supplemented with 1 mM GTP and 10 μM taxol. The diluted products were then incubated at 30° C. for 30 minutes in either the presence or absence of pure, pre-polymerized microtubules. Reactions were then centrifuged through a 40% sucrose cushion at 48,000×g for 30 minutes, the supernatant was collected, and the pellet washed once with warm BRB80 and resuspended in 1×SDS PAGE sample buffer. Both fractions were subjected to SDS-PAGE and transferred to nitrocellulose. The presence of tubulin in the pellets was confirmed by Ponceau staining, and GFP-tagged CEP290 constructs were detected by immunoblotting.

Experiment [2] deals with microtubule network of cultured human cells (hTERT-RPE1, 293T) (human, UniProt P68363 1-451; P07437 1-444). Put plainly: cell-based or functional assay.
microtubule network of cultured human cells (hTERT-RPE1, 293T), sequence (P68363 whole entry, chain 1 of 2): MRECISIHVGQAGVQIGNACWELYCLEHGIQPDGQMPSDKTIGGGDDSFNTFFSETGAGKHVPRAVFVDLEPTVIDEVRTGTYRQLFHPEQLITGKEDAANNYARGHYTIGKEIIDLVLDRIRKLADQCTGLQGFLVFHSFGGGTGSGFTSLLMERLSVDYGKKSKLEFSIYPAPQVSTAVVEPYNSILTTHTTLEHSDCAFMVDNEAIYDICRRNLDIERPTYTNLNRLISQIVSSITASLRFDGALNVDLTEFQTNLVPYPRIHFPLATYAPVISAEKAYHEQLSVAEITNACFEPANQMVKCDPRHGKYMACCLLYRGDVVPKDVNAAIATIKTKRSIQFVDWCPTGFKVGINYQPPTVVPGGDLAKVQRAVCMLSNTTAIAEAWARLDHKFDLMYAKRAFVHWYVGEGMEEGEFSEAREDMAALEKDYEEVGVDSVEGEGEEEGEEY
microtubule network of cultured human cells (hTERT-RPE1, 293T), sequence (P07437 whole entry, chain 2 of 2): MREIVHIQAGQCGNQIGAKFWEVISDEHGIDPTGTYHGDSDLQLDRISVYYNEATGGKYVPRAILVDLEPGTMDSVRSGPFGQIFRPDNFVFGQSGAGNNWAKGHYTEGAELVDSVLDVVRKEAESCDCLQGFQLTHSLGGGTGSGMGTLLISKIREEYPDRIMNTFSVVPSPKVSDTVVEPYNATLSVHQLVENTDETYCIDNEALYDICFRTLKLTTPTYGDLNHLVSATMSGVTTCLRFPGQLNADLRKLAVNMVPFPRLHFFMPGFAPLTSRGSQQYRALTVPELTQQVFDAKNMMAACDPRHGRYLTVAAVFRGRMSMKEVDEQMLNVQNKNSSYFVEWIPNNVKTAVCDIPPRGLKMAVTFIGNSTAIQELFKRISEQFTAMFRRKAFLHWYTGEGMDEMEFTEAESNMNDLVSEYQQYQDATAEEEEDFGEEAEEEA

Some results are limits rather than exact numbers.

T1 sequence (P81947 whole entry, chain 1 of 2): as the sequence (P68363 whole entry, chain 1 of 2) above
T1 sequence (Q6B856 whole entry, chain 2 of 2): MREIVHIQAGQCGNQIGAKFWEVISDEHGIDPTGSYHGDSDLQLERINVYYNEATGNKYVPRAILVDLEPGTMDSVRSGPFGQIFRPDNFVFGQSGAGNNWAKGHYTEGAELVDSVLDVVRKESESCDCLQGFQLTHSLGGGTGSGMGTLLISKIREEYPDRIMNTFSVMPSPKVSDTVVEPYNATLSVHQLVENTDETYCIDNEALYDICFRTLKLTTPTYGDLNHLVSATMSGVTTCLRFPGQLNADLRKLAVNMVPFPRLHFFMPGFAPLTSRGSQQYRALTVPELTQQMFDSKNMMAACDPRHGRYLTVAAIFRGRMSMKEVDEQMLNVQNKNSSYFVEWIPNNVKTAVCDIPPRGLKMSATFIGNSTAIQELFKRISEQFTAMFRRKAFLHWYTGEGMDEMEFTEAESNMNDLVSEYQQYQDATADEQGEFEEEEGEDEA

B1: GFP fusion of CEP290 aa 580-2479 (other)
chain: TENISQGDRISERKLDLLSLKNMSEAQSKNEFLSRELIEKERDLERSRTVIAKFQNKLKELVEENKQLEEGMKEILQAIKEMQKDPDVKGGETSLIIPSLERLVNAIESKNAEGIFDASLHLKAQVDQLTGRNEELRQELRESRKEAINYSQQLAKANLKIDHLEKETSLLRQSEGSNVVFKGIDLPDGIAPSSASIINSQNEYLIHLLQELENKEKKLKNLEDSLEDYNRKFAVIRHQQSLLYKEYLSEKETWKTESKTIKEEKRKLEDQVQQDAIKVKEYNNLLNALQMDSDEMKKILAENSRKITVLQVNEKSLIRQYTTLVELERQLRKENEKQKNELLSMEAEVCEKIGCLQRFKEMAIFKIAALQKVVDNSVSLSELELANKQYNELTAKYRDILQKDNMLVQRTSNLEHLECENISLKEQVESINKELEITKEKLHTIEQAWEQETKLGNESSMDKAKKSITNSDIVSISKKITMLEMKELNERQRAEHCQKMYEHLRTSLKQMEERNFELETKFAELTKINLDAQKVEQMLRDELADSVSKAVSDADRQRILELEKNEMELKVEVSKLREISDIARRQVEILNAQQQSRDKEVESLRMQLLDYQAQSDEKSLIAKLHQHNVSLQLSEATALGKLESITSKLQKMEAYNLRLEQKLDEKEQALYYARLEGRNRAKHLRQTIQSLRRQFSGALPLAQQEKFSKTMIQLQNDKLKIMQEMKNSQQEHRNMENKTLEMELKLKGLEELISTLKDTKGAQKVINWHMKIEELRLQELKLNRELVKDKEEIKYLNNIISEYERTISSLEEEIVQQNKFHEERQMAWDQREVDLERQLDIFDRQQNEILNAAQKFEEATGSIPDPSLPLPNQLEIALRKIKENIRIILETRATCKSLEEKLKEKESALRLAEQNILSRDKVINELRLRLPATAEREKLIAELGRKEMEPKSHHTLKIAHQTIANMQARLNQKEEVLKKYQRLLEKAREEQREIVKKHEEDLHILHHRLELQADSSLNKFKQTAWDLMKQSPTPVPTNKHFIRLAEMEQTVAEQDDSLSSLLVKLKKVSQDLERQREITELKVKEFENIKLQLQENHEDEVKKVKAEVEDLKYLLDQSQKESQCLKSELQAQKEANSRAPTTTMRNLVERLKSQLALKEKQQKALSRALLELRAEMTAAAEERIISATSQKEAHLNVQQIVDRHTRELKTQVEDLNENLLKLKEALKTSKNRENSLTDNLNDLNNELQKKQKAYNKILREKEEIDQENDELKRQIKRLTSGLQGKPLTDNKQSLIEELQRKVKKLENQLEGKVEEVDLKPMKEKNAKEELIRWEEGKKWQAKIEGIRNKLKEKEGEVFTLTKQLNTLKDLFAKADKEKLTLQRKLKTTGMTVDQVLGIRALESEKELEELKKRNLDLENDILYMRAHQALPRDSVVEDLHLQNRYLQEKLHALEKQFSKDTYSKPSISGIESDDHCQREQELQKENLKLSSENIELKFQLEQANKDLPRLKNQVRDLKEMCEFLKKEKAEVQRKLGHVRGSGRSGKTIPELEKTIGLMKKVVEKVQRENEQLKKASGILTSEKMANIEQENEKLKAELEKLKAHLGHQLSMHYESKTKGTEKIIAENERLRKELKKETDAAEKLRIAKNNLEILNEKMTVQLEETGKRLQFAESRGPQLEGADSKSWKSIVVTRMYETKLKELETDIAKKNQSITDLKQLVKEATEREQKVNKYNEDLEQQIKILKHVPEGAETEQGLKRELQVLRLANHQLDKEKAELIHQIEANKDQSGAESTIPDADQLKEKIKDLETQLKMSDLEKQHLKEEIKKLKKELENFDPSFFEEIEDLKYNYKEEVKKNILLEEKVKKLSEQLGVELTSPVAASEEFEDEEESPVNFPIY
notes: The text says only 'lacking the N-terminus'; also called truncation lacking the N-terminus; C-terminal fragment of CEP290 (aa 580 to 2479); not shown: N-terminal GFP tag from pcDNA-DEST53 (Gateway)
Take B1: in experiment [1], the “percent associated with microtubules” value is less than 50%. In addition, in experiment [2], the “percent of transfected cells with increased microtubule acetylation and bundling” value is approximately 40%; the “percent of transfected hTERT-RPE1 cells with a fibrillar localization pattern” value (“percent of transfected hTERT-RPE1 cells” below) is approximately 20%.

B2: GFP fusion of CEP290 aa 1-1966 (other)
chain: MPPNINWKEIMKVDPDDLPRQEELADNLLISLSKVEVNELKSEKQENVIHLFRITQSLMKMKAQEVELALEEVEKAGEEQAKFENQLKTKVMKLENELEMAQQSAGGRDTRFLRNEICQLEKQLEQKDRELEDMEKELEKEKKVNEQLALRNEEAENENSKLRRENKRLKKKNEQLCQDIIDYQKQIDSQKETLLSRRGEDSDYRSQLSKKNYELIQYLDEIQTLTEANEKIEVQNQEMRKNLEESVQEMEKMTDEYNRMKAIVHQTDNVIDQLKKENDHYQLQVQELTDLLKSKNEEDDPIMVAVNAKVEEWKLILSSKDDEIIEYQQMLHNLREKLKNAQLDADKSNVMALQQGIQERDSQIKMLTEQVEQYTKEMEKNTCIIEDLKNELQRNKGASTLSQQTHMKIQSTLDILKEKTKEAERTAELAEADAREKDKELVEALKRLKDYESGVYGLEDAVVEIKNCKNQIKIRDREIEILTKEINKLELKISDFLDENEALRERVGLEPKTMIDLTEFRNSKHLKQQQYRAENQILLKEIESLEEERLDLKKKIRQMAQERGKRSATSGLTTEDLNLTENISQGDRISERKLDLLSLKNMSEAQSKNEFLSRELIEKERDLERSRTVIAKFQNKLKELVEENKQLEEGMKEILQAIKEMQKDPDVKGGETSLIIPSLERLVNAIESKNAEGIFDASLHLKAQVDQLTGRNEELRQELRESRKEAINYSQQLAKANLKIDHLEKETSLLRQSEGSNVVFKGIDLPDGIAPSSASIINSQNEYLIHLLQELENKEKKLKNLEDSLEDYNRKFAVIRHQQSLLYKEYLSEKETWKTESKTIKEEKRKLEDQVQQDAIKVKEYNNLLNALQMDSDEMKKILAENSRKITVLQVNEKSLIRQYTTLVELERQLRKENEKQKNELLSMEAEVCEKIGCLQRFKEMAIFKIAALQKVVDNSVSLSELELANKQYNELTAKYRDILQKDNMLVQRTSNLEHLECENISLKEQVESINKELEITKEKLHTIEQAWEQETKLGNESSMDKAKKSITNSDIVSISKKITMLEMKELNERQRAEHCQKMYEHLRTSLKQMEERNFELETKFAELTKINLDAQKVEQMLRDELADSVSKAVSDADRQRILELEKNEMELKVEVSKLREISDIARRQVEILNAQQQSRDKEVESLRMQLLDYQAQSDEKSLIAKLHQHNVSLQLSEATALGKLESITSKLQKMEAYNLRLEQKLDEKEQALYYARLEGRNRAKHLRQTIQSLRRQFSGALPLAQQEKFSKTMIQLQNDKLKIMQEMKNSQQEHRNMENKTLEMELKLKGLEELISTLKDTKGAQKVINWHMKIEELRLQELKLNRELVKDKEEIKYLNNIISEYERTISSLEEEIVQQNKFHEERQMAWDQREVDLERQLDIFDRQQNEILNAAQKFEEATGSIPDPSLPLPNQLEIALRKIKENIRIILETRATCKSLEEKLKEKESALRLAEQNILSRDKVINELRLRLPATAEREKLIAELGRKEMEPKSHHTLKIAHQTIANMQARLNQKEEVLKKYQRLLEKAREEQREIVKKHEEDLHILHHRLELQADSSLNKFKQTAWDLMKQSPTPVPTNKHFIRLAEMEQTVAEQDDSLSSLLVKLKKVSQDLERQREITELKVKEFENIKLQLQENHEDEVKKVKAEVEDLKYLLDQSQKESQCLKSELQAQKEANSRAPTTTMRNLVERLKSQLALKEKQQKALSRALLELRAEMTAAAEERIISATSQKEAHLNVQQIVDRHTRELKTQVEDLNENLLKLKEALKTSKNRENSLTDNLNDLNNELQKKQKAYNKILREKEEIDQENDELKRQIKRLTSGLQGKPLTDNKQSLIEELQRKVKKLENQLEGKVEEVDLKPMKEKNAKEELIRWEEGKKWQAKIEGIRNKLKEKEGEVFTLTKQLNTLKDLFAKADKEKLTLQRKLKT
notes: The text says only 'lacking the C-terminus'; also called truncation lacking the C-terminus; not shown: N-terminal GFP tag from pcDNA-DEST53 (Gateway)
As to B2, in experiment [1], the “percent associated with microtubules” value was less than 50%. In experiment [2], the “percent of transfected cells with increased microtubule acetylation and bundling” value is approximately 40%; the “percent of transfected hTERT-RPE1 cells” value is approximately 60%.

B3: GFP fusion of CEP290 aa 1695-1966 (region M) (other)
chain: DQSQKESQCLKSELQAQKEANSRAPTTTMRNLVERLKSQLALKEKQQKALSRALLELRAEMTAAAEERIISATSQKEAHLNVQQIVDRHTRELKTQVEDLNENLLKLKEALKTSKNRENSLTDNLNDLNNELQKKQKAYNKILREKEEIDQENDELKRQIKRLTSGLQGKPLTDNKQSLIEELQRKVKKLENQLEGKVEEVDLKPMKEKNAKEELIRWEEGKKWQAKIEGIRNKLKEKEGEVFTLTKQLNTLKDLFAKADKEKLTLQRKLKT
notes: Also a construct without both termini; also called CEP290 region M alone; truncation M (GFP fusion); not shown: N-terminal GFP tag from pcDNA-DEST53 (Gateway)
Take B3: the “percent associated with microtubules” value in experiment [1] is approximately 100%. Moreover, the “percent of transfected cells with increased microtubule acetylation and bundling” value in experiment [2] is approximately 75%.

B4: GFP fusion of CEP290 aa 580-1966 (other)
chain: TENISQGDRISERKLDLLSLKNMSEAQSKNEFLSRELIEKERDLERSRTVIAKFQNKLKELVEENKQLEEGMKEILQAIKEMQKDPDVKGGETSLIIPSLERLVNAIESKNAEGIFDASLHLKAQVDQLTGRNEELRQELRESRKEAINYSQQLAKANLKIDHLEKETSLLRQSEGSNVVFKGIDLPDGIAPSSASIINSQNEYLIHLLQELENKEKKLKNLEDSLEDYNRKFAVIRHQQSLLYKEYLSEKETWKTESKTIKEEKRKLEDQVQQDAIKVKEYNNLLNALQMDSDEMKKILAENSRKITVLQVNEKSLIRQYTTLVELERQLRKENEKQKNELLSMEAEVCEKIGCLQRFKEMAIFKIAALQKVVDNSVSLSELELANKQYNELTAKYRDILQKDNMLVQRTSNLEHLECENISLKEQVESINKELEITKEKLHTIEQAWEQETKLGNESSMDKAKKSITNSDIVSISKKITMLEMKELNERQRAEHCQKMYEHLRTSLKQMEERNFELETKFAELTKINLDAQKVEQMLRDELADSVSKAVSDADRQRILELEKNEMELKVEVSKLREISDIARRQVEILNAQQQSRDKEVESLRMQLLDYQAQSDEKSLIAKLHQHNVSLQLSEATALGKLESITSKLQKMEAYNLRLEQKLDEKEQALYYARLEGRNRAKHLRQTIQSLRRQFSGALPLAQQEKFSKTMIQLQNDKLKIMQEMKNSQQEHRNMENKTLEMELKLKGLEELISTLKDTKGAQKVINWHMKIEELRLQELKLNRELVKDKEEIKYLNNIISEYERTISSLEEEIVQQNKFHEERQMAWDQREVDLERQLDIFDRQQNEILNAAQKFEEATGSIPDPSLPLPNQLEIALRKIKENIRIILETRATCKSLEEKLKEKESALRLAEQNILSRDKVINELRLRLPATAEREKLIAELGRKEMEPKSHHTLKIAHQTIANMQARLNQKEEVLKKYQRLLEKAREEQREIVKKHEEDLHILHHRLELQADSSLNKFKQTAWDLMKQSPTPVPTNKHFIRLAEMEQTVAEQDDSLSSLLVKLKKVSQDLERQREITELKVKEFENIKLQLQENHEDEVKKVKAEVEDLKYLLDQSQKESQCLKSELQAQKEANSRAPTTTMRNLVERLKSQLALKEKQQKALSRALLELRAEMTAAAEERIISATSQKEAHLNVQQIVDRHTRELKTQVEDLNENLLKLKEALKTSKNRENSLTDNLNDLNNELQKKQKAYNKILREKEEIDQENDELKRQIKRLTSGLQGKPLTDNKQSLIEELQRKVKKLENQLEGKVEEVDLKPMKEKNAKEELIRWEEGKKWQAKIEGIRNKLKEKEGEVFTLTKQLNTLKDLFAKADKEKLTLQRKLKT
notes: The text says only 'lacking both termini'; also called truncation lacking both termini; construct lacking both the N- and C-termini; not shown: N-terminal GFP tag from pcDNA-DEST53 (Gateway)
As to B4, in experiment [1], the “percent associated with microtubules” value was approximately 100%. For the same molecule, in experiment [2], the “percent of transfected cells with increased microtubule acetylation and bundling” value was approximately 75%; the “percent of transfected hTERT-RPE1 cells” value was approximately 80%.
